Measurements from the supplement of paper PMC10567573.

B1: PCDHGA10 (parent)
chain: FGIEIEVTDINDNAPKFQAENLDV

Variants of: B1
Experiment: protein stability index of a GFP-peptide fusion (GPS, HEK-293T) (PSI 1-6); higher = more stable
Settings: c terminus: a fixed tail appended
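Further: lentivirally expressed fusions sorted by FACS into six bins by GFP to DsRed ratio, PSI derived from sequencing read proportions per bin multiplied by bin number.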

Protein stability index, by site and new letter:
P15: D 3.62 | L 2.41 | I 2.25 | M 2.66 | F 1.84 | Y 2.23 | E 3.24 | G 3.52
I3: F 2.71 | K 4.73 | D 4.76 | T 4.65 | C 4.43 | P 4.96 | N 4.68 | E 5.11 | V 3.65 | L 4.08 | A 4.52
F1: Q 4.58 | I 2.57 | N 4.69 | D 4.71 | C 3.59 | R 4.17 | P 5.08 | L 3.05 | T 4.93
G2: Q 2.09 | L 2.17 | K 1.52 | N 1.9 | F 1.86
Q18: S 2.1 | P 2.41 | G 2.94 | A 2.88 | K 3 | W 1.93 | T 2.77 | M 2.13
L22: C 3.27 | Y 2.83 | R 3.7 | M 2.84 | H 3.4 | I 3.02 | S 4.17
V7: C 3.75 | H 4.74 | K 4.21 | S 4.63 | R 4.14
D12: K 2.98 | V 2.05 | L 1.49 | N 2.15 | W 1.6 | F 1.94 | M 1.75 | Y 1.56 | T 1.99
N21: S 2.54 | P 2.6 | H 2.82 | K 3.25 | E 3.46 | W 1.37 | T 2.89 | L 2.13 | F 1.84 | C 2.47 | I 1.84 | R 2.07 | V 2.33
F17: Q 4.14 | V 3.65 | N 4.15 | R 3.9 | S 3.98 | P 4.03
I5: T 5.08 | W 3.05 | C 4.28 | L 3.94 | V 3.48 | M 3.86 | Q 4.71 | F 3.49 | N 5.05 | P 5.13
N11: A 2.88 | I 2.04 | F 1.33 | P 2.73 | C 2.28 | D 3.54 | E 2.94 | Y 1.76
A14: E 3.83 | L 1.98 | S 3.13 | I 2.49 | M 2.42 | W 1.67 | N 3.35 | H 2.79 | G 3.08
E20: N 2.27 | C 1.61 | D 2.82 | W 2.11 | L 1.33 | H 2.02 | G 2.11 | R 1.83 | T 2.34 | Q 2.4
I10: R 3.73 | F 2.4 | G 3.67 | D 4.78 | C 3.4 | V 3.24 | W 2.03 | P 3.83 | S 3.91 | L 2.63 | E 4.23
E6: M 1.41 | W 2.9 | G 3.56 | V 2.04 | Q 2.39 | F 2.43 | A 3.25 | T 1.98 | S 2.69 | P 4.08
T8: I 1.76 | L 1.89 | P 3.75 | M 2.19 | W 2.27 | V 2.08 | E 3.32 | S 2.77 | R 2.32 | N 3.81
K16: S 2.52 | A 2.53 | D 3.46 | H 2.76 | N 2.94 | I 2.48 | T 2.91 | G 3.56 | C 2.45 | Y 2.18
D23: H 1.8 | E 2.59 | I 1.93 | C 1.82
A19: G 3.51 | E 3.83 | Y 1.95 | S 2.62
